These results are taken from patent US20150344570A1 (published 2015).

Assay [1] deals with T1, FcγRIa extracellular domain with C-terminal His tag (human, UniProt P12314 16-292).
T1 construct: extracellular domain; Soluble receptor used as analyte in Biacore; also called FcgRI
Kind of assay: SPR (Biacore), antibody captured, FcγR as analyte; binding relative to GpH7-A5/GpH7-B3/GpL16-k0 = 100.

Assay [2] deals with T2, FcγRIIb extracellular domain with C-terminal His tag (human, UniProt P31994 43-217).
T2 construct: extracellular domain; Soluble receptor used as analyte in Biacore; also called FcgRIIb
T2 sequence (looked up): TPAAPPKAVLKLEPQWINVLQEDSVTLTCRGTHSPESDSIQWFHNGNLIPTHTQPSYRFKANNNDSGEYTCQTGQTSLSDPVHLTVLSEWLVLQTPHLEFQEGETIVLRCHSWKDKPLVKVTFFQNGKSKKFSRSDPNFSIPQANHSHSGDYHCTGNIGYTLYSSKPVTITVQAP
Described as above.

The target in assay [3] is T1, FcγRIa extracellular domain with …. Nature of the assay: ratio He/Con_1a : He/Con_2b (FcγRIa over FcγRIIb), SPR (Biacore).
Assay [4] has as its target T3, FcγRIIa H (FcγRIIa, allotype with His at position 131), extracellular domain with C-terminal His tag (human, UniProt P12318 34-217).
T3 construct: extracellular domain; also called FcgRIIa H; 2aH; not shown: His tag at the C terminus
T3 sequence (looked up): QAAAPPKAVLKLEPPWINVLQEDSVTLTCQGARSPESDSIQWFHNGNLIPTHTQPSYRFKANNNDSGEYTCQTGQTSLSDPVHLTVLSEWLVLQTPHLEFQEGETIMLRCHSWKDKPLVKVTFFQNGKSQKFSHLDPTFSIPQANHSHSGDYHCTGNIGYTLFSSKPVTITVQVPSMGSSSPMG
Nature of the assay: SPR (Biacore); He/Con_2aH divided by He/Con_2b (FcγRIIb).

Assay [5] concerns the target T3, FcγRIIa H (FcγRIIa, allotype with His …). Kind of assay: SPR (Biacore), relative binding vs GpH7-A5/GpH7-B3/GpL16-k0.
Assay [6] has as its target T4, FcγRIIb, extracellular domain with C-terminal His tag (human, UniProt P31994 43-217).
T4 construct: extracellular domain; also called FcgRIIb; 2b; not shown: His tag at the C terminus
T4 sequence (looked up): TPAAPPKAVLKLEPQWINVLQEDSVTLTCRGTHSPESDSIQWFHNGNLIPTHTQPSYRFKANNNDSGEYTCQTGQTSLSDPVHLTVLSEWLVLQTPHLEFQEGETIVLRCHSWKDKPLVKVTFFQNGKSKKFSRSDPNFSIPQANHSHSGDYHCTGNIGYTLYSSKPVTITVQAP
The description is as above.

T1 sequence (P12314 16-292): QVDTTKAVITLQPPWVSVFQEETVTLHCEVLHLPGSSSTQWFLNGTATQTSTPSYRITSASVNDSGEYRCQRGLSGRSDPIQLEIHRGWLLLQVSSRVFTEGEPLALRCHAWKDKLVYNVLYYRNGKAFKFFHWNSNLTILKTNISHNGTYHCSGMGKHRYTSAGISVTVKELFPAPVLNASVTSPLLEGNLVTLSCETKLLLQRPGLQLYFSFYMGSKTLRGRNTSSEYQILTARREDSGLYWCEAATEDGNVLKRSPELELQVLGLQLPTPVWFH

B1: GpH7-A5/GpH7-B3 variant N325_13S/GpL16-k0 (antibody, human IgG1, kappa)
heavy 1: not shown
heavy 2: not shown
light: DIVMTQSPLSLPVTPGEPASISCQASESLVHSNRNTYLHWYLQKPGQSPQLLIYKVSNRFSGVPDRFSGSGSGTDFTLKISRVEAEDVGVYYCSQNTHVPPTFGQGTKVEIERTVAAPSVFIFPPSDEQLKSGTASVVCLLNNFYPREAKVQWKVDNALQSGNSQESVTEQDSKDSTYSLSSTLTLSKADYEKHKVYACEVTHQGLSSPVTKSFNRGEC
notes: Heterodimerized IgG1, mutation in the GpH7-B3 chain only; also called He Ab
Turning to B1, the He/Con_1a in assay [1] was found to be 96.8 control = 100. The He/Con_2b in assay [2] was found to be 177 control = 100. In addition, the “He_1a/2b (Ia/IIb)” value in assay [3] came out at 0.55.

B2: GpH7-A5/GpH7-B3 variant N325_01G/GpL16-k0 (antibody, human IgG1, kappa)
heavy 1: not shown
heavy 2: not shown
light: DIVMTQSPLSLPVTPGEPASISCQASESLVHSNRNTYLHWYLQKPGQSPQLLIYKVSNRFSGVPDRFSGSGSGTDFTLKISRVEAEDVGVYYCSQNTHVPPTFGQGTKVEIERTVAAPSVFIFPPSDEQLKSGTASVVCLLNNFYPREAKVQWKVDNALQSGNSQESVTEQDSKDSTYSLSSTLTLSKADYEKHKVYACEVTHQGLSSPVTKSFNRGEC
notes: Heterodimerized anti-glypican-3 IgG1; mutation in one H chain only; also called He Ab
In the case of B2, the “He_2aH/2b (IIaH/IIb)” value in assay [4] came to 0.56 ratio. In addition, the He/Con_2aH in assay [5] is 56.8 % of HeCon Ab (=100). For the same molecule, the He/Con_2b in assay [6] is 101 % of HeCon Ab (=100).

B3: GpH7-A5/GpH7-B3 variant K326_09D/GpL16-k0 (antibody, human IgG1, kappa)
heavy 1: not shown
heavy 2: not shown
light: DIVMTQSPLSLPVTPGEPASISCQASESLVHSNRNTYLHWYLQKPGQSPQLLIYKVSNRFSGVPDRFSGSGSGTDFTLKISRVEAEDVGVYYCSQNTHVPPTFGQGTKVEIERTVAAPSVFIFPPSDEQLKSGTASVVCLLNNFYPREAKVQWKVDNALQSGNSQESVTEQDSKDSTYSLSSTLTLSKADYEKHKVYACEVTHQGLSSPVTKSFNRGEC
notes: as for B2
Take B3: the “He_2aH/2b (IIaH/IIb)” value in assay [4] is 0.57 ratio. Besides, the He/Con_2aH in assay [5] was 110 % of HeCon Ab (=100). The He/Con_2b in assay [6] was 193 % of HeCon Ab (=100).

B4: GpH7-A5/GpH7-B3 variant K326_05P/GpL16-k0 (antibody, human IgG1, kappa)
heavy 1: not shown
heavy 2: not shown
light: DIVMTQSPLSLPVTPGEPASISCQASESLVHSNRNTYLHWYLQKPGQSPQLLIYKVSNRFSGVPDRFSGSGSGTDFTLKISRVEAEDVGVYYCSQNTHVPPTFGQGTKVEIERTVAAPSVFIFPPSDEQLKSGTASVVCLLNNFYPREAKVQWKVDNALQSGNSQESVTEQDSKDSTYSLSSTLTLSKADYEKHKVYACEVTHQGLSSPVTKSFNRGEC
notes: as for B2
Regarding B4, in assay [4], the “He_2aH/2b (IIaH/IIb)” value is 0.79 ratio. Besides, the He/Con_2aH in assay [5] is 98.8 % of HeCon Ab (=100). Besides, the He/Con_2b in assay [6] is 126 % of HeCon Ab (=100).

B5: GpH7-A5/GpH7-B3 variant K326_10E/GpL16-k0 (antibody, human IgG1, kappa)
heavy 1: not shown
heavy 2: not shown
light: DIVMTQSPLSLPVTPGEPASISCQASESLVHSNRNTYLHWYLQKPGQSPQLLIYKVSNRFSGVPDRFSGSGSGTDFTLKISRVEAEDVGVYYCSQNTHVPPTFGQGTKVEIERTVAAPSVFIFPPSDEQLKSGTASVVCLLNNFYPREAKVQWKVDNALQSGNSQESVTEQDSKDSTYSLSSTLTLSKADYEKHKVYACEVTHQGLSSPVTKSFNRGEC
notes: as for B2
As for B5, the “He_2aH/2b (IIaH/IIb)” value in assay [4] was determined as 0.51 ratio. The He/Con_2aH in assay [5] was 102 % of HeCon Ab (=100). Moreover, the He/Con_2b in assay [6] is 200 % of HeCon Ab (=100).

B6: GpH7-A5/GpH7-B3 variant K326_08L/GpL16-k0 (antibody, human IgG1, kappa)
heavy 1: not shown
heavy 2: not shown
light: DIVMTQSPLSLPVTPGEPASISCQASESLVHSNRNTYLHWYLQKPGQSPQLLIYKVSNRFSGVPDRFSGSGSGTDFTLKISRVEAEDVGVYYCSQNTHVPPTFGQGTKVEIERTVAAPSVFIFPPSDEQLKSGTASVVCLLNNFYPREAKVQWKVDNALQSGNSQESVTEQDSKDSTYSLSSTLTLSKADYEKHKVYACEVTHQGLSSPVTKSFNRGEC
notes: as for B2
With B6, the “He_2aH/2b (IIaH/IIb)” value in assay [4] is 0.52 ratio. In assay [5], the He/Con_2aH was 92.7 % of HeCon Ab (=100). Also, in assay [6], the He/Con_2b is 177 % of HeCon Ab (=100).

B7: GpH7-A5/GpH7-B3 variant K326_04F/GpL16-k0 (antibody, human IgG1, kappa)
heavy 1: not shown
heavy 2: not shown
light: DIVMTQSPLSLPVTPGEPASISCQASESLVHSNRNTYLHWYLQKPGQSPQLLIYKVSNRFSGVPDRFSGSGSGTDFTLKISRVEAEDVGVYYCSQNTHVPPTFGQGTKVEIERTVAAPSVFIFPPSDEQLKSGTASVVCLLNNFYPREAKVQWKVDNALQSGNSQESVTEQDSKDSTYSLSSTLTLSKADYEKHKVYACEVTHQGLSSPVTKSFNRGEC
notes: as for B2
Turning to B7, in assay [4], the “He_2aH/2b (IIaH/IIb)” value stood at 0.63 ratio. In addition, the He/Con_2aH in assay [5] is 97 % of HeCon Ab (=100). Also, the He/Con_2b in assay [6] is 155 % of HeCon Ab (=100).
